Test results from US20100143438A1, “BIOMOLECULES” (University of Strathclyde, priority 2006, published 2010).

System: Fmoc-FRGD-PEGA surface tethered peptide (Fmoc-F↓RGD bond)
Test: Enzymatic hydrolysis of PEGA surface tethered peptides analysed by HPLC
Assay type: biochemical
Details: for Fmoc-F-OH (%) / Fmoc-FR-OH (%): 37° C., 2 hours in enzyme solution, 100% = 4.08 nmol maximum Fmoc-peptide hydrolysed, n=9; for cleavage and selectivity for Fmoc-F↓RGD versus Fmoc-FR↓GD: HPLC
Procedure: Three proteolytic enzymes, chymotrypsin, thermolysin and proteinase K, that are known to cleave peptide bonds involving F amino acids in the P1 position were tested for their ability to selectively hydrolyse Fmoc-F↓RGD bond^15. […] Surfaces were incubated at 37° C. for 2 hours in enzyme solution (concentrations and activities are shown in Table 1) in phosphate buffer and the cleaved products were analysed by HPLC.
Surfaces were rinsed in a known volume (at least 4 ml) of a 50:50 mixture of acetonitrile (ACN) and water. The rinsing solution was kept and added to the enzyme solution that the surface was in. 1 ml of this solution was placed into an HPLC autosampler vial. The HPLC machine (manufactured by Dionex; California, USA) consisted of a P.680 HPLC pump joined to an ASI-100 Automated Sample Injector with a Dionex UVD17OU detector. The column was an EC 250/4.6 Nucleosil 100-5 C18, with an internal diameter of 4.6 mm and a column length of 250 mm containing particles of 5 μm in diameter. 100 μl was injected into the HPLC column at the start of each run and a buffer gradient run through the column, buffer A was 99.9% water and 0.1% TFA, buffer B was 99.9% ACN and 0.1% TFA. For quantification, three samples of each surface were produced and repeated three times.

B1: Thermolysin: proteolytic enzyme (metalloprotease) (protein, UniProt P00800 233-548, looked up)
Thermolysin: ITGTSTVGVGRGVLGDQKNINTTYSTYYYLQDNTRGNGIFTYDAKYRTTLPGSLWADADNQFFASYDAPAVDAHYYAGVTYDYYKNVHNRLSYDGNNAAIRSSVHYSQGYNNAFWNGSQMVYGDGDGQTFIPLSGGIDVVAHELTHAVTDYTAGLIYQNESGAINEAISDIFGTLVEFYANKNPDWEIGEDVYTPGISGDSLRSMSDPAKYGDPDHYSKRYTGTQDNGGVHINSGIINKAAYLISQGGTHYGVSVVGIGRDKLGKIFYRALTQYLTPTSNFSQLRAAAVQSATDLYGSTSQEVASVKQAFDAVGVK
- Fmoc-F-OH (%): 40 ± 2.4%
- Fmoc-FR-OH (%): 27 ± 3.5%
- cleavage and selectivity for Fmoc-F↓RGD versus Fmoc-FR↓GD: poor selectivity

B2: Proteinase K: proteolytic enzyme cleaving peptide bonds with F in P1 position (protein, UniProt P06873 106-384, looked up)
Proteinase K: AAQTNAPWGLARISSTSPGTSTYYYDESAGQGSCVYVIDTGIEASHPEFEGRAQMVKTYYYSSRDGNGHGTHCAGTVGSRTYGVAKKTQLFGVKVLDDNGSGQYSTIIAGMDFVASDKNNRNCPKGVVASLSLGGGYSSSVNSAAARLQSSGVMVAVAAGNNNADARNYSPASEPSVCTVGASDRYDRRSSFSNYGSVLDIFGPGTSILSTWIGGSTRSISGTSMATPHVAGLAAYLMTLGKTTAASACRYIADTANKGDLSNIPFGTVNLLAYNNYQA
- Fmoc-F-OH (%): 60 ± 3.0%
- Fmoc-FR-OH (%): 40 ± 8.0%
- cleavage and selectivity for Fmoc-F↓RGD versus Fmoc-FR↓GD: highest cleavage but poor selectivity
- maximum amount of Fmoc-peptide cleaved from the surface (determined by HPLC): 4.08 nmol
